# According to patent US20260191907A1 (INSTITUT CURIE, published 2026):
# T1: Recombinant FGFR4 (G&P Biosciences) (human, UniProt P22455 22-369)
# T1 construct: Bought protein; the SPR method says only 'Recombinant; also called rFGFR4; extracellular FGFR4
# T1 sequence: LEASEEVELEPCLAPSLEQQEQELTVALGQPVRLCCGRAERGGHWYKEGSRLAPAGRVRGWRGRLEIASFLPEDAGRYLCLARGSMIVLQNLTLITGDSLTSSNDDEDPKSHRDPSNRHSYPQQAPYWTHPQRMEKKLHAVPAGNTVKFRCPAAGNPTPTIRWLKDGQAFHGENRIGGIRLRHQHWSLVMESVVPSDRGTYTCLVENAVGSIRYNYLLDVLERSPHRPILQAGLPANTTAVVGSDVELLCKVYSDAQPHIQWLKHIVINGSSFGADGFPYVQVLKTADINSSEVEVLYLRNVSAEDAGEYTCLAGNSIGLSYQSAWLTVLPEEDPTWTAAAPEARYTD
# B1: B1 nanobody (anti-FGFR4 sdAb, NaLi-H1 library) (VHH)
# VHH: EVQLQASGGGFVQPGGSLRLSCAASGYTSRSSAMGWFRQAPGKEREFVSAISDLTGYPYYYADSVKGRFTISRDNSKNTVYLQMNSLRAEDTATYYCAAYQDDKWTYGSQHGKYWGQGTQVTVSS
# notes: also called B1 sdAb; not shown: C-terminal Myc/6xHis-tag and an additional cysteine
# B2: A8 nanobody (anti-FGFR4 sdAb, NaLi-H1 library) (VHH)
# VHH: EVQLQASGGGFVQPGGSLRLSCAASGRTYSRDTMGWFRQAPGKEREFVSAISSRHSHTTYYADSVKGRFTISRDNSKNTVYLQMNSLRAEDTATYYCAEWDVFDMHYALPPMWYWGQGTQVTVSS
# notes: also called A8 sdAb; not shown: C-terminal Myc/6xHis-tag and an additional cysteine
# B3: B5 nanobody (anti-FGFR4 sdAb, NaLi-H1 library) (VHH)
# VHH: EVQLQASGGGFVQPGGSLRLSCAASGRTSWLTTMGWFRQAPGKEREFVSAISSFSSKQGYYADSVKGRFTISRDNSKNTVYLQMNSLRAEDTATYYCAYASYPRHQGNGRWKDFVEYWGQGTQVTVSS
# notes: Recombinant nanobody of about 17 kDa; also called B5 sdAb; not shown: C-terminal Myc/6xHis-tag and an additional cysteine
# B4: F8 nanobody (anti-FGFR4 sdAb, Gimli library) (VHH)
# VHH: EVQLVESGGGLVQPGGSLRLSCAASGTGYALDDMGWVRQAPGKGLEWVSAISDDESMADYYADSVKGRFTISRDNSKNTVYLQMNSLRAEDTAVYYCASYKEYKYQSGHHYFAYRGQGTLVTVSS
# notes: Recombinant nanobody of about 17 kDa; also called F8 sdAb; not shown: C-terminal Myc/6xHis-tag and an additional cysteine
# Target: T1, Recombinant FGFR4 (G&P Biosciences)
# Assay: SPR (BIAcore T200), single cycle kinetics, FGFR4 amine-immobilised, nanobody as analyte, heterogeneous ligand model, component 2 (kon2)
# Experimental: (§1) FIG. 3: Affinity determination of nanobodies to recombinant protein via surface plasmon resonance spectroscopy. Single cycle kinetics analysis was performed on immobilized FGFR4 through covalent amine binding on the dextran based sensor chip. The analytes A8, B1, B5, F8 and mCh were injected in 5 different concentrations followed by a dissociation phase. A final dissociation step was added after the last injection step to determine Koff rates for the KD calculations. The black curves represent the measured data and red curves show the fit analysis (heterogeneous ligand model) performed with the BIAevaluation software.
# (§2) Single cycle kinetics analysis was performed with the BIAcore® T200 instrument (GE Healthcare) on CMD200M sensor chips (XanTec bioanalytics GmbH) activated with a mixture of 300 mM NHS (N-hydroxysuccinimide) and 50 mM EDC (N-ethyl-N′-(dimethylaminopropyl) carbodiimide). Recombinant FGFR1, FGFR2, FGFR3 and FGFR4 (G&P Biosciences) were immobilized on the activated biosensors (800 to 12′000 RU; 1 RU=1 pg/mm²) followed by a blocking step with 1M ethanolamine. One flow channel per chip was used as a reference to provide background corrections. The nanobodies were injected at 5 different concentrations followed by a dissociation phase. Koff-rates were determined from a final dissociation step after the last injection. The measurements with FGFR4 were performed for each nanobody on freshly immobilized protein due to strong binding and incomplete dissociation from the surface. Immobilization flow rate was 5 μl/min and binding studies were performed at 30 μl/min. Binding parameters were determined with the heterogeneous ligand model fit of the BIAevaluation software. The black curves represent the measured data and red curves show the performed fit analysis.
# (§3) To determine the binding affinity of the nanobodies to FGFR4, we performed surface plasmon resonance (SPR) spectroscopy with recombinant FGFR4. As already mentioned above, FGFR1 and FGFR2 are expressed on Rh4-FR4ko cells and flow cytometry analysis indicated no binding of the nanobodies to the cells. To further confirm FGFR4-specificity, we included also affinity measurements with recombinant FGFR1, FGFR2 and FGFR3. Nanobodies A8, B1, B5, F8, and mCh were injected in five different concentrations on a FGFR coated chip.
row,kon [M⁻¹ s⁻¹],Binder
1,216000,B1
2,66700,B2
3,173000,B3
4,1.35e+06,B4

# Target: T2, FGFR4 expressed on the surface of RMS cells (Rh4-FR4 wt, Rh30) (human, UniProt P22455 22-802)
# T2 construct: Endogenous FGFR4 of the rhabdomyosarcoma cell lines; The whole entry includes the signal peptide; also called cell-surface FGFR4; Rh4-FR4 wt cells
# Assay: flow cytometry, recombinant nanobody at 30 µg/ml on Rh4-FR4 wt cells, anti-6xHis-FITC detection
# Experimental: Control cells (C) were either not stimulated or stimulated with FGF19 in absence of the nanobodies. The cell lysates were analysed by western blot with anti phospho ERK1/2 antibody. Total Erk1/2 levels are shown as loading control.
# Binding validation of selected phages, recombinant nanobodies and decorated liposomes was performed on Rh4-FR4 wt and Rh4-FR4ko cells. Specificity of selected phage clones binding to FGFR4 was determined by flow cytometry in 96-well plates (Becton Dickinson). Cell surface staining of Rh4-FR4 wt or Rh4-FR4ko cells was performed on ice in PBS supplemented with 1% FBS. 80 μL phages+20 μL PBS/1% milk were incubated on 1×10⁵ cells for 1 h on ice. […] Samples were analyzed after two washes by flow cytometry on a MACSQuant® cytometer (Miltenyi) and results were analyzed with FlowJo™ software (BD Biosciences, France). Phages displaying anti-mCherry nanobodies were used as negative control²⁴ and as positive control we used an anti-FGFR4 antibody (BT53, kindly provided by J. Khan lab, NCI, Bethesda, MD). For binding test of recombinant nanobodies, cells were detached with Accutase® (Stemcell Technologies) and washed with PBS. All following steps were performed on ice: 4×10⁵ cells were incubated with nanobody concentrations of 30 μg/ml for 1 h, washed once with PBS and incubated for an additional 30 min with anti His-tag FITC labeled antibody (LS-C57341, LSBioscience, diluted 1:10). The cells were washed once more with PBS and analyzed. Targeting liposomes were added at 0.5 mM final lipid concentration to cells in 96-well plates and incubated for 2 h at 37° C. and 5% CO₂. The cells were washed twice with PBS and detached with Accutase®.
# Validation of the binding of recombinant nanobodies to cell-surface expressed FGFR4 was performed with Rh4-FR4 wt and Rh4-FR4ko cells by flow cytometry. A FITC-labeled anti-6×His-tag antibody was used to detect surface-bound nanobodies.
row,median fluorescence intensity (MFI),Binder
1,~400,B1
2,~400,B2
3,~400,B3
4,~400,B4

# Target: T1, Recombinant FGFR4 (G&P Biosciences)
# Assay: SPR (BIAcore T200), single cycle kinetics, FGFR4 amine-immobilised, nanobody as analyte, heterogeneous ligand model, component 1 (kon1)
# Experimental: as §1, §2, §3
row,kon [M⁻¹ s⁻¹],Binder
1,1.11e+06,B1
2,314000,B2
3,1.84e+06,B3
4,54500,B4
